Experimental data: the supplement of paper PMC10065799, “High-throughput profiling of sequence recognition by tyrosine kinases and SH2 domains using bacterial peptide display” (eLife, 2023)

Key:
Grb2 SH2 = Grb2 SH2 (UniProt P62993); assay: SH2 binding enrichment of the phosphorylated peptide, bacterial display (enrichment ratio); higher = better substrate or ligand; peptides without Tyr show the background
c-Src SH2 = assay: as above
SHP2-C SH2 = assay: as above
Hck = Hck (UniProt P08631); assay: phosphorylation enrichment, bacterial display (enrichment ratio); higher = better substrate or ligand; peptides without Tyr show the background
EPHB2 = EPHB2 (UniProt P29323); assay: as above
Jak2 = Jak2 (UniProt O60674); assay: as above
Fer (mouse) = assay: as above
FGFR3 = FGFR3 (UniProt P22607); assay: as above
AncSZ = assay: as above
FGFR1 = FGFR1 (UniProt P11362); assay: as above
c-Src = assay: as above
MERTK = MERTK (UniProt Q12866); assay: as above
EPHB1 = EPHB1 (UniProt P54762); assay: as above
Fyn = Fyn (UniProt P06241); assay: as above
Fes = Fes (UniProt P07332); assay: as above
c-Abl (mouse) = assay: as above
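Wherever SH2 binding enrichment of the phosphorylated peptide, bacterial display is given: peptide library displayed on the E. coli surface as eCPX fusions, selected cells deep-sequenced, score is each peptide's frequency after selection divided by its frequency in the input.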
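Wherever phosphorylation enrichment, bacterial display is given: 11-residue human phosphosite peptides and single-mutation variants displayed on the E. coli surface, counted by deep sequencing, each peptide's frequency after selection divided by its frequency in the unselected input library; frequency after pTyr selection over input frequency; kinase dosed for 20-30% of maximal phosphorylation in three min.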

Sequence of Hck (P08631 whole entry, looked up): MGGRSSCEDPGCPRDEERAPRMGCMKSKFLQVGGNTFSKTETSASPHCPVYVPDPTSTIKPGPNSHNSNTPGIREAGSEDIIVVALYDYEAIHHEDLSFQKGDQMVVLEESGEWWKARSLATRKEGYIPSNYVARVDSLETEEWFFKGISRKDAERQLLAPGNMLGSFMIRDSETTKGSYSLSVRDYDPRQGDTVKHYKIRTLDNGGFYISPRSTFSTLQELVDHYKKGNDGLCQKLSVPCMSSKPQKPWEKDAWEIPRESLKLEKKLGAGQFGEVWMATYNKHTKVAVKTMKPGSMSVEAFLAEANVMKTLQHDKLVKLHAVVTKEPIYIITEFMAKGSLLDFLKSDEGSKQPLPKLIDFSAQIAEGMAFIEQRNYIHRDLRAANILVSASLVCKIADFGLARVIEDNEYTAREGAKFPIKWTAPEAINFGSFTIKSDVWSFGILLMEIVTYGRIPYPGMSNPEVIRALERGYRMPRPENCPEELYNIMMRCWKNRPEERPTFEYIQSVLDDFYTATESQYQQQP
Sequence of Fyn (P06241 whole entry, looked up): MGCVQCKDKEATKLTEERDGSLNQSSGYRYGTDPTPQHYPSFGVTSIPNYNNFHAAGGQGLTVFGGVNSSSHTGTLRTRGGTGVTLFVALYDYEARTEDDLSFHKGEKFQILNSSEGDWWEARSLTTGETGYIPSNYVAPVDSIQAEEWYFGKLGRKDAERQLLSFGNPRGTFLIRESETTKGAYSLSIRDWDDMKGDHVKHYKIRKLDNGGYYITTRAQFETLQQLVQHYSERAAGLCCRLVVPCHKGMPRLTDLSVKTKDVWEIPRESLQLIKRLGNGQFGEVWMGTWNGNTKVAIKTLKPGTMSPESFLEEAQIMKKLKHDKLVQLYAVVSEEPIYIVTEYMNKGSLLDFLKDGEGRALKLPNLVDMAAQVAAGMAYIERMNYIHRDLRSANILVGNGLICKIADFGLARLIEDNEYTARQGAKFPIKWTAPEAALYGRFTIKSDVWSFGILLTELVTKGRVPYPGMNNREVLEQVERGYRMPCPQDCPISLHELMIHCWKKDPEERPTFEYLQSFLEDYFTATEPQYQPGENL
Sequence of FGFR3 (P22607 whole entry, looked up): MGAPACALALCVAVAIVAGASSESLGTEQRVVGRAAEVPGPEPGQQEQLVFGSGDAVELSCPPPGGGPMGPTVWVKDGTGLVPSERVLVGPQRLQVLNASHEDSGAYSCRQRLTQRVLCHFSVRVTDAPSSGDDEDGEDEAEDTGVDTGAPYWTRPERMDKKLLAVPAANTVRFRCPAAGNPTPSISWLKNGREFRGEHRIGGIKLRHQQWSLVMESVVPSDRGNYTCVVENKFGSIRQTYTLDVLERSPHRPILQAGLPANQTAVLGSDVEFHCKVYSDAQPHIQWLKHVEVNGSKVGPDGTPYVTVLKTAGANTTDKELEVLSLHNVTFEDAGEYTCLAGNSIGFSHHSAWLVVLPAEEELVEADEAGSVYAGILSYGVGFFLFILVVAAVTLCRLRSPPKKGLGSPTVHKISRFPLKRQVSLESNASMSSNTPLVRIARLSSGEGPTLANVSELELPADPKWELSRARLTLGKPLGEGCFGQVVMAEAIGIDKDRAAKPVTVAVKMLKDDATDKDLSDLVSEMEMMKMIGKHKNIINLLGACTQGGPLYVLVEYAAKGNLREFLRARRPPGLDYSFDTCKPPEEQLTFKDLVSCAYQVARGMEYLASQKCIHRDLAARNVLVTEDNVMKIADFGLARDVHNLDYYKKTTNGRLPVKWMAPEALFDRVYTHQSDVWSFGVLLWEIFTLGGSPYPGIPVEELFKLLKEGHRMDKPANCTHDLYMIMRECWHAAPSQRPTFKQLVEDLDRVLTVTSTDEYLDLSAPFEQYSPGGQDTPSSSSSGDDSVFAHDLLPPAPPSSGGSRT
Sequence of EPHB1 (P54762 whole entry, looked up): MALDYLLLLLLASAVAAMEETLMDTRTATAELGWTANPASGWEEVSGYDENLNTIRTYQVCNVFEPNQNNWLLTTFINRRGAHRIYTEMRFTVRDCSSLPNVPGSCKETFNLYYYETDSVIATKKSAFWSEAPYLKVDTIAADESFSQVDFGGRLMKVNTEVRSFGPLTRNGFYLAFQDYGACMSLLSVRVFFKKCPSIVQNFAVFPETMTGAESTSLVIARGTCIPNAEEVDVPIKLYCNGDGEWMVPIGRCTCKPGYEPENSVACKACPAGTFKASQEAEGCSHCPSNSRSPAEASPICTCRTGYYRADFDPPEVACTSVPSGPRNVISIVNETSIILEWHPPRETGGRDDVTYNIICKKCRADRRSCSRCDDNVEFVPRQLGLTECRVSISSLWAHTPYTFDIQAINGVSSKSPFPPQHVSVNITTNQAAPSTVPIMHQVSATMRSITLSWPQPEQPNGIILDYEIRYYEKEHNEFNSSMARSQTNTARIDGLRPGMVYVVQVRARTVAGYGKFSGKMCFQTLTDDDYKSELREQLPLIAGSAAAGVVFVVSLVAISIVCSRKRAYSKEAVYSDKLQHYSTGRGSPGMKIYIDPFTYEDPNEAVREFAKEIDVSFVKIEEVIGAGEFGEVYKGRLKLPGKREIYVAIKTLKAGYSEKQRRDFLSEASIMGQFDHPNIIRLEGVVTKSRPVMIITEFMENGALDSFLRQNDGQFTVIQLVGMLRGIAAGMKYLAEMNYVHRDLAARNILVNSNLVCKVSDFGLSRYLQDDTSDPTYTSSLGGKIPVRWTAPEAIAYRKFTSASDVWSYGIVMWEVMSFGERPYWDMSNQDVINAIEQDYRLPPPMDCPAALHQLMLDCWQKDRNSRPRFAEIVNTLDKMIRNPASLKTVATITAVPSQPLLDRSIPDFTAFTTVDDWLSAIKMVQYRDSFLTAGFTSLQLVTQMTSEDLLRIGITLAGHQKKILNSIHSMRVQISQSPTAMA
Sequence of MERTK (Q12866 whole entry, looked up): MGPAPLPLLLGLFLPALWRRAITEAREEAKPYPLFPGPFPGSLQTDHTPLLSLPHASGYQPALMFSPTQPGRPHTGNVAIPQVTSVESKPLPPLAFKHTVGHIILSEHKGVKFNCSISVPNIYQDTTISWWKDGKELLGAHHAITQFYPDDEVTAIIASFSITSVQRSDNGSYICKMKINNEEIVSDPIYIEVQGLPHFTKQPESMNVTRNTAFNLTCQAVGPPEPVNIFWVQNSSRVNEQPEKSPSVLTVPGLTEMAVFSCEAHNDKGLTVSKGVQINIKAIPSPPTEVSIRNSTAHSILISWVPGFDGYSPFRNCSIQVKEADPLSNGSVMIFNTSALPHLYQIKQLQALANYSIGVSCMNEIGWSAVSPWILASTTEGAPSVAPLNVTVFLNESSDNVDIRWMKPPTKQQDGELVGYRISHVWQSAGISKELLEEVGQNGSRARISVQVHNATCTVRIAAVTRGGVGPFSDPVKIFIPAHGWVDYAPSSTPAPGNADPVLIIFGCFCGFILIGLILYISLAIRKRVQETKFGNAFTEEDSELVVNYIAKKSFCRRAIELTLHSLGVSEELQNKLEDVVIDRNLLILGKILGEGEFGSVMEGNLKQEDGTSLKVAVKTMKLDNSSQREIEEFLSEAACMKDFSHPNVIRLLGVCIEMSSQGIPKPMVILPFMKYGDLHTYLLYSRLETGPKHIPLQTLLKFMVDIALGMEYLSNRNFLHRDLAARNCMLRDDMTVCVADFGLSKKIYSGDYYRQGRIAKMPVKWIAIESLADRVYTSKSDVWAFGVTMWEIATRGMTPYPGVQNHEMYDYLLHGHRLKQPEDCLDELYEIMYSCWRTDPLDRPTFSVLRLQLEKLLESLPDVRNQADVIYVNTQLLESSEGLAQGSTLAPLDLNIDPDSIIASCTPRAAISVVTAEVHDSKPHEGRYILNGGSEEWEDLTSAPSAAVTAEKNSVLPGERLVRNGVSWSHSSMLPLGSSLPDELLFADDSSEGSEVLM
Sequence of Jak2 (O60674 whole entry, looked up): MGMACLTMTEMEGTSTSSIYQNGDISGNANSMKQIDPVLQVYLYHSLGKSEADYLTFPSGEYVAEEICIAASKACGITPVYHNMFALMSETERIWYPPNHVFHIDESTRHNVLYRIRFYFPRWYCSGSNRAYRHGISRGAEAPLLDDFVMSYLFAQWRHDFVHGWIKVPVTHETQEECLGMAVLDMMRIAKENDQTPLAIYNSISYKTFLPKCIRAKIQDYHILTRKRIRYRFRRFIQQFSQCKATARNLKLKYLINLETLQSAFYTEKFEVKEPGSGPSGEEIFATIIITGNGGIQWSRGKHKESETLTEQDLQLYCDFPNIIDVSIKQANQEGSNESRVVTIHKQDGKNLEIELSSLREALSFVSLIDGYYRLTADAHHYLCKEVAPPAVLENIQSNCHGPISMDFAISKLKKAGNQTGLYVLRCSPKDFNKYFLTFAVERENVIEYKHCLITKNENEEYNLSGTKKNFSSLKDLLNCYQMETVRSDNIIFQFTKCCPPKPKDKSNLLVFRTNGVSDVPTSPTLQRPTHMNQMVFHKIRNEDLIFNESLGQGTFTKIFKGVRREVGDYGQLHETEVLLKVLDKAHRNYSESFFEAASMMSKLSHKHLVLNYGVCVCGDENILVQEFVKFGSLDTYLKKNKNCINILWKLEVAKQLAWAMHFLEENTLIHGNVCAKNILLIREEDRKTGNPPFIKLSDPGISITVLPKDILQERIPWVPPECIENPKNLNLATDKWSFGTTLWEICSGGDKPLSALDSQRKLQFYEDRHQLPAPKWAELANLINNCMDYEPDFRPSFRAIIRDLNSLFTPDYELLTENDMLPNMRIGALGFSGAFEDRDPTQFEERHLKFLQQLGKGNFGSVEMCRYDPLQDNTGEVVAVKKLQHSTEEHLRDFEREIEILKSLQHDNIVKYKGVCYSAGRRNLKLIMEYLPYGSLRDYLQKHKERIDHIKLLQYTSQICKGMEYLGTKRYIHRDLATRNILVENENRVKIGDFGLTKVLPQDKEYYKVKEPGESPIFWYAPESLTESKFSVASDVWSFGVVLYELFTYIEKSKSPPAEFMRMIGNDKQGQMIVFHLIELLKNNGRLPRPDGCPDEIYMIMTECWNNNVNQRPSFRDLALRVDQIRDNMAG

Row | Sequence | SH2 binding enrichment (Grb2 SH2) | SH2 binding enrichment (c-Src SH2) | SH2 binding enrichment (SHP2-C SH2) | phosphorylation enrichment (Hck) | phosphorylation enrichment (EPHB2) | phosphorylation enrichment (Jak2) | phosphorylation enrichment (Fer (mouse)) | phosphorylation enrichment (FGFR3) | phosphorylation enrichment (AncSZ) | phosphorylation enrichment (FGFR1) | phosphorylation enrichment (c-Src) | phosphorylation enrichment (MERTK) | phosphorylation enrichment (EPHB1) | phosphorylation enrichment (Fyn) | phosphorylation enrichment (Fes) | phosphorylation enrichment (c-Abl (mouse))
1 | ENGPYYTSYPP [GDAP2_Y488] | 0.761 | 0.763 | 0.708 | 2.14 | 1 | 0.703 | 0.707 | 1.89 | 1.31 | 2.7 | 3.52 | 5.54 | 0.658 | 3.58 | 0.83 | 1.33
2 | ENPLDYGSAWA [AR_Y395] | 0.716 | 0.454 | 0.806 | 0.559 | 0.565 | 0.991 | 0.524 | 0.744 | 0.992 | 0.491 | 0.476 | 0.395 | 0.46 | 0.527 | 1.08 | 0.709
3 | ENQEIYRKAFD [KPNA1_Y493_Q494R] | 0.814 | 0.397 | 0.719 | 0.499 | 0.798 | 1.3 | 0.55 | 0.627 | 0.883 | 0.537 | 0.451 | 0.393 | 0.618 | 0.431 | 1.13 | 0.812
4 | EQLGEYKFQNA [ALB_Y425] | 0.793 | 0.518 | 0.416 | 0.415 | 0.415 | 0.715 | 0.351 | 0.5 | 0.824 | 0.471 | 0.367 | 0.324 | 0.461 | 0.394 | 0.77 | 0.774
5 | EQYELHCEMGS [CBL_Y371_Y371H] | 0.815 | 0.611 | 0.859 | 0.498 | 0.63 | 1.03 | 0.915 | 0.818 | 1.33 | 0.538 | 0.61 | 0.476 | 0.682 | 0.491 | 1.18 | 0.82
6 | ERLLDYTRTVQ [INPP5E_Y439] | 0.777 | 0.39 | 0.584 | 0.439 | 0.451 | 1.06 | 0.544 | 0.665 | 0.945 | 0.518 | 0.493 | 0.365 | 0.663 | 0.495 | 1.06 | 0.853
7 | ERTIEYLEEVA [HADHA_Y239] | 0.774 | 0.513 | 0.637 | 0.622 | 0.704 | 1.2 | 0.663 | 0.845 | 1.28 | 0.608 | 0.521 | 0.541 | 0.593 | 0.722 | 1.35 | 0.863
8 | ESFRLYPPVPQ [CYP4B1_Y377] | 0.829 | 0.464 | 0.713 | 0.415 | 0.477 | 0.536 | 0.378 | 0.491 | 0.62 | 0.342 | 0.391 | 0.404 | 0.416 | 0.457 | 0.704 | 0.553
9 | ESKAGYRVPRS [CLDN7_Y195] | 0.83 | 0.544 | 0.699 | 0.416 | 0.327 | 0.524 | 0.52 | 0.352 | 0.543 | 0.305 | 0.43 | 0.339 | 0.303 | 0.369 | 0.583 | 0.681
10 | ESLRRYLENGK [HLA-B_Y195_W191S] | 0.813 | 0.436 | 0.473 | 0.461 | 0.362 | 0.519 | 0.454 | 0.45 | 0.629 | 0.397 | 0.34 | 0.392 | 0.431 | 0.384 | 0.629 | 0.548
11 | EVKEAYMGSVL [ACAT1_Y90_N93S] | 0.883 | 0.452 | 0.671 | 0.447 | 0.532 | 0.83 | 0.398 | 0.527 | 0.841 | 0.407 | 0.592 | 0.463 | 0.485 | 0.489 | 0.995 | 0.744
12 | EWLRRYLENGK [HLA-A_Y195] | 0.932 | 0.522 | 0.757 | 0.387 | 0.456 | 0.661 | 0.36 | 0.498 | 0.691 | 0.42 | 0.346 | 0.328 | 0.386 | 0.346 | 0.809 | 0.581
13 | EWRSPYGLTPR [GRIN3B_Y601] | 1.3 | 0.645 | 0.766 | 0.474 | 0.473 | 0.459 | 0.434 | 0.442 | 0.569 | 0.403 | 1.28 | 0.484 | 0.413 | 0.657 | 0.636 | 0.486
14 | EYFDGYWGYSV [ITGA2B_Y265] | 0.999 | 1.94 | 0.578 | 5.55 | 9.3 | 12.3 | 1.4 | 13.7 | 3.58 | 14.6 | 7.52 | 2.87 | 3.88 | 6.24 | 1.42 | 4.7
15 | EYKDAYKFAAD [BRDT_Y335] | 0.861 | 0.864 | 0.572 | 0.542 | 0.553 | 0.722 | 0.559 | 0.632 | 0.984 | 0.511 | 0.495 | 0.475 | 0.59 | 0.499 | 1.14 | 0.666
16 | FCRHNYGAVES [HLA-DRB1_Y112_V114A_YF] | 1 | 1.05 | 0.816 | 0.441 | 0.555 | 0.856 | 0.42 | 0.604 | 0.628 | 0.471 | 0.527 | 0.439 | 0.674 | 0.359 | 0.826 | 0.83
17 | FDDDDYDMDFV [BLM_Y296_T298M] | 0.795 | 0.485 | 0.606 | 0.56 | 0.612 | 0.945 | 0.561 | 0.815 | 1.29 | 0.55 | 0.57 | 0.438 | 0.761 | 0.613 | 1.23 | 0.68
18 | FDKEFYSVHNK [MET_Y1235_YF] | 0.917 | 0.543 | 0.841 | 0.803 | 0.638 | 0.866 | 0.561 | 0.717 | 0.806 | 0.528 | 0.641 | 0.721 | 0.432 | 0.479 | 0.947 | 0.959
19 | FDKPVYQKTTE [LDLR_Y828_N825K] | 0.811 | 0.563 | 0.557 | 0.436 | 0.475 | 0.691 | 0.451 | 0.57 | 0.684 | 0.518 | 0.506 | 0.473 | 0.452 | 0.472 | 0.739 | 0.606

The next lines start with results.

Row | SH2 binding enrichment (Grb2 SH2) | SH2 binding enrichment (c-Src SH2) | SH2 binding enrichment (SHP2-C SH2) | Sequence | phosphorylation enrichment (Hck) | phosphorylation enrichment (EPHB2) | phosphorylation enrichment (Jak2) | phosphorylation enrichment (Fer (mouse)) | phosphorylation enrichment (FGFR3) | phosphorylation enrichment (AncSZ) | phosphorylation enrichment (FGFR1) | phosphorylation enrichment (c-Src) | phosphorylation enrichment (MERTK) | phosphorylation enrichment (EPHB1) | phosphorylation enrichment (Fyn) | phosphorylation enrichment (Fes) | phosphorylation enrichment (c-Abl (mouse))
20 | 0.774 | 0.374 | 0.867 | EPAVLYNLKDR [MYH7_Y103] | 0.662 | 0.537 | 0.585 | 0.455 | 0.539 | 0.722 | 0.521 | 0.461 | 0.473 | 0.411 | 0.583 | 0.835 | 0.571
21 | 1.14 | 0.466 | 0.676 | EPVSDYINANV [PTPN11_Y304_I309V] | 0.428 | 0.486 | 0.754 | 0.384 | 0.585 | 1.03 | 0.541 | 0.37 | 0.4 | 0.42 | 0.393 | 0.855 | 0.567
22 | 1.05 | 1.19 | 0.899 | EQKRYYNAMKK [SCN5A_Y1495_K1493R] | 0.312 | 0.317 | 0.605 | 0.399 | 0.465 | 0.586 | 0.348 | 0.371 | 0.547 | 0.356 | 0.457 | 0.576 | 0.447
23 | 0.923 | 0.72 | 0.654 | EQSNPYMVLDI [ROCK2_Y1197] | 1.38 | 0.616 | 1.24 | 3.79 | 1.1 | 1.19 | 1.11 | 3.73 | 2.28 | 0.577 | 2.5 | 1.09 | 0.737
24 | 0.877 | 0.978 | 0.85 | ERFSYYGMKAV [SLC15A2_Y61] | 1.37 | 0.658 | 4.66 | 0.386 | 4.31 | 0.993 | 4.94 | 1.4 | 0.9 | 0.477 | 0.8 | 0.767 | 0.578
25 | 0.881 | 0.715 | 0.714 | ERSMSYSDESR [SMG1_Y143] | 0.456 | 0.541 | 0.876 | 0.485 | 0.63 | 0.887 | 0.537 | 0.538 | 0.489 | 0.541 | 0.463 | 0.912 | 0.905
26 | 0.642 | 0.471 | 0.795 | ESMNTYLQTSP [NAT1_Y208] | 0.655 | 0.511 | 0.825 | 0.539 | 0.664 | 1 | 0.584 | 0.477 | 0.412 | 0.584 | 0.469 | 0.947 | 0.693
27 | 0.727 | 0.84 | 0.504 | ETELPYQELQG [TYROBP_Y91_S89L] | 0.941 | 0.58 | 1.02 | 0.997 | 1.5 | 1.58 | 1.65 | 2.5 | 0.566 | 0.535 | 0.737 | 1.18 | 0.872
28 | 0.756 | 0.659 | 0.796 | FADIAYIFRHG [PAH_Y166_N167I_YF] | 0.449 | 0.487 | 0.97 | 0.507 | 0.626 | 0.908 | 0.637 | 0.415 | 0.458 | 0.715 | 0.508 | 1.03 | 0.579
29 | 0.749 | 0.673 | 1.15 | FADIAYSFRHG [PAH_Y166_N167S_YF] | 0.44 | 0.383 | 0.422 | 0.393 | 0.491 | 0.62 | 0.313 | 0.64 | 0.33 | 0.344 | 0.443 | 0.674 | 0.463
30 | 0.85 | 0.521 | 0.812 | FEDALYTVLHR [UNC13D_Y61_YF] | 9.35 | 13.8 | 1.4 | 11.4 | 2.38 | 2.96 | 2.49 | 7.03 | 9.68 | 16 | 9.12 | 1.79 | 5.92
31 | 0.755 | 0.504 | 0.883 | FEEVVYQAMEE [TACC3_Y684] | 1.74 | 0.737 | 1.35 | 1.21 | 0.955 | 1.86 | 0.621 | 3.34 | 0.744 | 0.838 | 2.12 | 1.54 | 1.62
32 | 1.06 | 0.637 | 0.552 | FENGEYIVRQG [PRKG1_Y247_I249V_YF] | 0.551 | 0.641 | 0.685 | 0.523 | 0.922 | 0.888 | 0.437 | 0.43 | 0.39 | 0.612 | 0.468 | 0.962 | 0.646
33 | 0.968 | 0.693 | 0.656 | FETNVYVDKNL [PTCHD3_Y688_K685T] | 0.578 | 0.539 | 0.53 | 0.482 | 0.623 | 0.996 | 0.436 | 0.36 | 0.411 | 0.546 | 0.54 | 0.938 | 1.01
